B1: Lipid A palmitoyltransferase PagP, P37001 (parent)
chain: MNVSKYVAIFSFVFIQLISVGKVFANADEWMTTFRENIAQTWQQPEHYDLYIPAITWHARFAYDKEKTDRYNERPWGGGFGLSRWDEKGNWHGLYAMAFKDSWNKWEPIAGYGWESTWRPLADENFHLGLGFTAGVTARDNWNYIPLPVLLPLASVGYGPVTFQMTYIPGTYNNGNVYFAWMRFQF

Variants of: B1
Conditions: Escherichia coli (strain K12), pH 8, 25 °C, Urea, CD, structure 1THQ, whole UniProt chain shown
[1] = Sodium phosphate 50 mM, reversible: Yes
[2] = sodium phosphate buffer, transition: 2, reversible: yes

Variant	ddG of mutation (higher = less stable) [1]	denaturant midpoint (higher = more stable) [1]	unfolding free energy [1]	ddG of mutation (higher = less stable) [2]	denaturant midpoint (higher = more stable) [2]	unfolding free energy [2]	denaturant m value [1]
MNVSKYVAIFSFVFIQLISVGKVFANADEWMTTFRENIAQTWQQPEHYDLYIPAITWHARFAYDKEKTDRYNERPWGGGAGLSRWDEKGNWHGLYAMAFKDSWNKWEPIAGYGWESTWRPLADENFHLGLGFTAGVTARDNWNYIPLPVLLPLASVGYGPVTFQMTYIPGTYNNGNVYFAWMRFQF	1.05 kcal/mol	8.13 M	13.3 kcal/mol	6.25 kcal/mol	8.13 M	8.13 kcal/mol	–
MNVSKYVAIFSFVFIQLISVGKVFANADEWMTTFRENIAQTWQQPEHYDLYIPAITWHARFAYDKEKTDRYNERPWGGGFGLSRWDEKGNWHGLYAAAFKDSWNKWEPIAGYGWESTWRPLADENFHLGLGFTAGVTARDNWNYIPLPVLLPLASVGYGPVTFQMTYIPGTYNNGNVYFAWMRFQF	0.34 kcal/mol	8.56 M	14 kcal/mol	5.82 kcal/mol	8.56 M	8.56 kcal/mol	–
MNVSKYVAIFSFVFIQLISVGKVFANADEWMTTFRENIAQTWQQPEHYDLYIPAITWHARFAYDKEKTDRYNERPWGGGFGLARWDEKGNWHGLYAMAFKDSWNKWEPIAGYGWESTWRPLADENFHLGLGFTAGVTARDNWNYIPLPVLLPLASVGYGPVTFQMTYIPGTYNNGNVYFAWMRFQF	1.26 kcal/mol	8.01 M	13.1 kcal/mol	6.37 kcal/mol	8.01 M	8.01 kcal/mol	–
MNVSKYVAIFSFVFIQLISVGKVFANADEWMTTFRENIAQTWQQPEHYDLYIPAITWHARFAYDKEKTDRYNERPWGGGFGLSRWDEKGNWHGLYAMAFKDSWNKWEPIAGYGWESTWRPLADENFHLGLGFTAGVTARDNWNYIPLPVLLPLASVGYGPVAFQMTYIPGTYNNGNVYFAWMRFQF	0.51 kcal/mol	8.46 M	13.9 kcal/mol	5.92 kcal/mol	8.46 M	8.46 kcal/mol	–
MNVSKYVAIFSFVFIQLISVGKVFANADEWMTTFRENIAQTWQQPEHYDLYIPAITWHARFAYDKEKTDRYNERPWGGGFGLSRWDEKGNWHGLYAMAFKDSWNKWEPIAGYGWASTWRPLADENFHLGLGFTAGVTARDNWNYIPLPVLLPLASVGYGPVTFQMTYIPGTYNNGNVYFAWMRFQF	0.66 kcal/mol	8.37 M	13.7 kcal/mol	6.01 kcal/mol	8.37 M	8.37 kcal/mol	–
MNVSKYVAIFSFVFIQLISVGKVFANADEWMTTFRENIAQTWQQPEHYDLYIPAITWHARFAYDKEKTDRYNERPWGGGFGLSRWDEKGNWHGLYAMAFKDSWNKWEPIAGYGWESTWRPLADENFHLGLGFTAGVTARDNWNYIPLPVLLPLASVGYGPVTFQMTYIPGTYNNGNVAFAWMRFQF	0.55 kcal/mol	8.43 M	13.8 kcal/mol	5.95 kcal/mol	8.43 M	8.43 kcal/mol	–
MNVSKYVAIFSFVFIQLISVGKVFANADEWMTTFRENIAQTWQQPEHYDLYIPAITWHARFAYDKEKTDRYNERPAGGGFGLSRWDEKGNWHGLYAMAFKDSWNKWEPIAGYGWESTWRPLADENFHLGLGFTAGVTARDNWNYIPLPVLLPLASVGYGPVTFQMTYIPGTYNNGNVYFAWMRFQF	0.45 kcal/mol	8.5 M	13.9 kcal/mol	5.88 kcal/mol	8.5 M	8.5 kcal/mol	–
MNVSKYVAIFSFVFIQLISVGKVFANADEWMTTFRENIAQTWQQPEHYDLYIPAITWHARFAYDKEKTDRYNERPWGGGFGLSRWDEKGNWHGLYAMAFKDSWNKWEPIAGYGWESTWRPLADENFHLGLGFTAGVTARDNWNYIPLPVLLPLASVGYGPVTFQMTYIPGTYNNGNVYFAWMRFAF	-0.18 kcal/mol	8.88 M	14.6 kcal/mol	5.5 kcal/mol	8.88 M	8.88 kcal/mol	1.64 kcal/mol/M
MNVSKYVAIFSFVFIQLISVGKVFANADEWMTTFRENIAQTWQQPEHYDLYIPAITWHARFAYDKEKTDRYNERPWGGGFGLSRWDEKGNWHGLYAMAFKDSWNKWEPIAGYGWESTWRPLADENFHLGLGFTAGVTARDNWNYIPLPVLLPLASVGYGPVTFAMTYIPGTYNNGNVYFAWMRFQF	0.97 kcal/mol	8.18 M	13.4 kcal/mol	6.2 kcal/mol	8.18 M	8.18 kcal/mol	–
MNVSKYVAIFSFVFIQLISVGKVFANADEWMTTFRENIAQTWQQPEHYDLYIPAITWHARFAYDKEKTDRYNERPWGGGFGLSRWDEKGNWHGLYAMAFKDSWNKWEPIAGFGWESTWRPLADENFHLGLGFTAGVTARDNWNYIPLPVLLPLASVGYGPVTFQMTYIPGTYNNGNVYFAWMRFQF	1.37 kcal/mol	7.93 M	13 kcal/mol	6.45 kcal/mol	7.93 M	7.93 kcal/mol	–
MNVSKYVAIFSFVFIQLISVGKVFANADEWMTTFRENIAQTWQQPEHADLYIPAITWHARFAYDKEKTDRYNERPWGGGFGLSRWDEKGNWHGLYAMAFKDSWNKWEPIAGYGWESTWRPLADENFHLGLGFTAGVTARDNWNYIPLPVLLPLASVGYGPVTFQMTYIPGTYNNGNVYFAWMRFQF	0.91 kcal/mol	8.22 M	13.5 kcal/mol	6.16 kcal/mol	8.22 M	8.22 kcal/mol	–
MNVSKYVAIFSFVFIQLISVGKVFANADEWMTTFRENIAQTWQQPEHYDLYIPAITWHARFAYDKEKTDRYNERPWGGGFGLSRWDEKGNWHGLYAMAFKDSWNKWEPIAGYGWESTWAPLADENFHLGLGFTAGVTARDNWNYIPLPVLLPLASVGYGPVTFQMTYIPGTYNNGNVYFAWMRFQF	1.53 kcal/mol	7.84 M	12.8 kcal/mol	6.54 kcal/mol	7.84 M	7.84 kcal/mol	–
MNVSKYVAIFSFVFIQLISVGKVFANADEWMTTFRENIAQTWQQPEHYDLYIPAITWHARFAYDKEKTDRYNERPWGGGFGLSRWDEKGNWHGLYAMAFKDSWNKWEPIGGYGWESTWRPLADENFHLGLGFTAGVTARDNWNYIPLPVLLPLASVGYGPVTFQMTYIPGTYNNGNVYFAWMRFQF	0.87 kcal/mol	8.24 M	13.5 kcal/mol	–	–	–	–
MNVSKYVAIFSFVFIQLISVGKVFANADEWMTTFRENIAQTWQQPEHYDLYIPAITWHARFAYDKEKTDRYNERPWGGGFGLSRWDEKGNWHGLYAMAFKDSWNKWEPIAGYGWESTWRPLADENFHLGLGFAAGVTARDNWNYIPLPVLLPLASVGYGPVTFQMTYIPGTYNNGNVYFAWMRFQF	0.4 kcal/mol	8.52 M	14 kcal/mol	5.86 kcal/mol	8.52 M	8.52 kcal/mol	–
MNVSKYVAIFSFVFIQLISVGKVFANADEWMTTFRENIAQTWQQPEHYDLYIPAITWHARFAYDKEKTDRYNERPWGGGFGLSRWDEKGNWHGLYAMAFKDSWNKWEPIAGYGWESTWRPLADENFHLGAGFTAGVTARDNWNYIPLPVLLPLASVGYGPVTFQMTYIPGTYNNGNVYFAWMRFQF	0.76 kcal/mol	8.3 M	13.6 kcal/mol	6.08 kcal/mol	8.3 M	8.3 kcal/mol	–

Source: FireProtDB (doi:10.1073/pnas.0911904107)
